Measured values published in patent publication US20220054591A1, “METHODS OF TREATING OF INFLAMMATORY BOWEL DISEASE AND PARASITE INFECTION” (President and Fellows of Harvard College, priority 2016, published 2022).
Entries after “also recorded” stand apart in the source; their conditions may differ.

B1: IL-25: recombinant IL-25 (Biolegend; R&D), parasite-induced cytokine, added to organoids or injected i.p. (protein, UniProt Q8VHH8 17-169, looked up)
Interleukin-25: VSLRIQEGCSHLPSCCPSKEQEPPEEWLKWSSASVSPPEPLSHTHHAESCRASKDGPLNSRAISPWSYELDRDLNRVPQDLYHARCLCPHCVSLQTGSHMDPLGNSVPLYHNQTVFYRRPCHGEEGTHRRYCLERRLYRVSLACVCVRPRVMA
B2: IL-13: recombinant IL-13 (Biolegend), type 2 cytokine added to organoid media (protein, UniProt P20109 19-131, looked up)
Interleukin-13: APGPVPRSVSLPLTLKELIEELSNITQDQTPLCNGSMVWSVDLAAGGFCVALDSLTNISNCNAIYRTQRILHGLCNRKAPTTVSSLPDTKIEVAHFITKLLSYTKQLFRHGPF

Key:
tuft cells = assay: Metronidazole in drinking water of WT (BIH) mice: tuft cell frequency in the epithelium; format: in vivo; conditions: metronidazole 2.5 g/L in drinking water for 1 week, vs control
Procedure: (§1) Antibiotic treatment—Mice were treated with metronidazole (2.5 g/L) with 1% sucrose in the drinking water for 7 days. Control mice were given 1% sucrose water over the same time span. Fluid intake was monitored and metronidazole solution was changed 4 days after initiating antibiotic treatment.
Histology and Fluorescence microscopy —The small intestine was removed and divided into proximal and distal sections before fixation in 4% paraformaldehyde. The tissue was then embedded in paraffin and cut into 5 μm thick sections. For both histology and immunofluorescence, sections were initially deparaffinized and rehydrated. Hematoxylin and eosin (H&E) staining was performed using standard procedures. Goblet cells were identified by alcian blue/nuclear red staining and enumerated along the crypt-villus axis by quantitative microscopy. For immunofluorescence, heat-mediated antigen retrieval was performed in Tris-EDTA buffer 0.05% Tween-20 pH 9.0 for 20 minutes. Afterwards, the slides were washed in PBS and blocked in PBS containing 3% BSA, 3% donkey serum, 0.1% Triton X-100, 0.1% saponin for 1 hour at room temperature. Primary antibodies were incubated overnight at 4° C. and secondary antibodies were applied for 1.5 hours at room temperature. […]

Tritrichomonas muris = assay: Metronidazole in drinking water of WT (BIH) mice: T. muris abundance in stool DNA by qPCR; format: in vivo; conditions: metronidazole 2.5 g/L in drinking water for 1 week
Procedure: as §1
Tritrichomonas muris enumeration—The distal 10 cm of small intestine was removed and flushed with ice-cold sterile PBS using a 19-gauge feeding needle. The intestinal contents were then pelleted by centrifugation and stored at −20° C. Genomic DNA was isolated from the stool with QIamp Fast DNA Stool mini kit (Qiagen) according to the manufacturer's directions. To detect and enumerate Tritrichomonas muris, quantitative PCR (qPCR) was performed using KAPPA SYBR fast Universal PCR (KAPPA Biosystems) with the following primers recognizing T. muris 28S rRNA gene: 5′-[…]-3′(SEQ ID NO. 1) and 5′-[…]-3′ (SEQ ID NO. 2). To convert qPCR values into parasite numbers, T. muris trophozoytes were isolated and counted using a hemocytomer before extracting genomic DNA and analyzing by qPCR. […] The T. muris 28S rRNA gene and Eubacteria 16S rRNA gene were amplified by qPCR and T. muris 28S relative abundance was calculated as 2^−ΔCt(28S-16S).

[1] = test system: tuft cells in small intestinal organoids; assay: Small intestinal organoids treated with recombinant cytokine: GFP+ tuft cell abundance by flow cytometry; format: cell-based, mice; conditions: 48 hours; for effect on tuft cell numbers / abundance in organoids (in words): WT and Trpm5-/- organoids, IL-13 10 ng/ml or IL-25 50 ng/ml; for tuft cells of total organoid cells: IL-13 10 ng/ml, untreated 0.3%
Procedure: Small intestine organoid culture and flow cytometry—Distal small intestinal organoids were prepared as previously described (Miyoshi et al., Nat Protoc. 8, 2471-2482 (2013)). To assess cytokine effects on tuft cells abundance, IL-13 (10 ng/ml, Biolegend, Endotoxin level <0.01 ng/μg) or IL-25 (50 ng/mil, Biolegend, Endotoxin level <0.01 ng/μg) were added to organoid media for 48 hours. To perform flow cytometry, organoids were liberated from the matrigel matrix as described by Miyoshi et al. and digested in DMEM containing 10% FBS, 0.5 units/ml Dispase II (StemCell Technologies), 50 μg/ml DNase (Roche) for 8 minutes at 37° C. The resulting solution was filtered through 40 μm mesh and stained for flow cytometry with APC-conjugated anti-EpCam (clone G8.8, Biolegend) with cell viability assessed with PI (Biolegend).

[2] = test system: eosinophils and tuft cells of the distal small intestine; assay: In vivo IL-25 i.p. injections in T. muris colonized Trpm5-/- mice: eosinophils and tuft cells of distal small intestine; conditions: 0.5 μg IL-25 i.p. daily for 7 days, vs PBS
Procedure: Epithelial cell isolation and flow cytometry —The distal 10 cm of small intestine was removed and flushed as described above. The intestine was opened longitudinally and gently agitated at 4° C. in PBS, 2% FBS, 5 mM EDTA, 1 mM DTT for 10 min. The tissue was then transferred into prewarmed PBS, 2% FBS, 5 mM EDTA and rotated at 37° C. for 15 minutes followed by vigorous shaking to remove epithelial cells. This was repeated and epithelial cells from both fractions were combined and washed with PBS. The epithelium was then digested in DMEM containing 10% FBS, 0.5 units/ml Dispase II (StemCell Technologies), 50 μg/ml DNase (Roche) for 12 minutes at 37° C. The resulting solution was passed through 40 μm filters and washed with PBS, 2% FBS, 1 mM EDTA. The resulting single cell suspension was initially Fc blocked with anti-CD16/CD32 (clone 93, Biolegend) and then stained with the following antibodies: PacBlue-conjugated anti-CD45 (clone 30-F11, Biolegend), APC-conjugated anti-EpCam (clone G8.8, Biolegend). The cell viability was assessed by propidium iodide (PI) (Biolegend) staining.
Lamina propria cell isolation and flow cytometry—The distal 10 cm of small intestine was collected and epithelial cells were removed as detailed above. […]

[3] = test system: DCLK1 and Trpm5 expression in organoids; assay: Small intestinal organoids treated with cytokine: gene expression by RT-qPCR; format: cell-based, mice; conditions: IL-13 treated organoids
Description: RNA isolation and RT-PCR for in vivo and vitro tuft cells—Epithelial cells from Gfi1b^EGFP/+ mice were isolated and stained for Fluorescence Activated Cell Sorting (FACS) as previously detailed. Tuft cells were sorted based on GFP^+EpCam^+CD45^−PI^− while the remaining epithelial cells were GFP-EpCam^+CD45^−PI^−. RNA was then extracted from tuft cells and the remaining epithelium using RNeasy Micro Kit (Qiagen). Whole intestinal organoids were initially stored in RNAlater solution (Ambion) before extracting RNA using Qiazol (Qiagen) according to the manufacturer's directions. cDNA was synthesized using the iScript cDNA Synthesis Kit (Bio-Rad) and RT-qPCR was performed using the KAPA SYBR FAST Universal qPCR Kit (KAPA Biosystems). […]
Small intestine organoid culture and flow cytometry—Distal small intestinal organoids were prepared as previously described (Miyoshi et al., Nat Protoc. 8, 2471-2482 (2013)). […] The resulting solution was filtered through 40 μm mesh and stained for flow cytometry with APC-conjugated anti-EpCam (clone G8.8, Biolegend) with cell viability assessed with PI (Biolegend).

Molecule | tuft cell abundance / frequency in the epithelium (tuft cells) | T. muris levels in stool (T. muris 28S rRNA relative to eubacteria 16S rRNA) (Tritrichomonas muris) | effect on tuft cell numbers / abundance in organoids (in words) [1] | distal small intestinal eosinophilia [2] | tuft cell abundance in distal small intestine [2] | tuft cells of total organoid cells ([1]; Trpm5-/- organoids) | tuft cells of total organoid cells ([1]; WT organoids) | expression of Dclk1 in organoids [3] | expression of Trpm5 in organoids [3]
Cc1ncc([N+](=O)[O-])n1CCO [metronidazole] | reduced tuft cell abundance; also recorded: reduces tuft cell frequency | eliminated T. muris; also recorded: below the limit of detection | – | – | – | – | – | – | –
B1 | – | – | did not increase tuft cell numbers | restoration | restoration | – | – | – | –
B2 | – | – | increases tuft cell abundance | – | – | 10.9% | 11.9% | increased | increased
